Entries after “also recorded” stand apart in the source; their conditions may differ.
Legend:
[1] = target: T1, human Nectin-4 expressed on cells (human, UniProt Q96NY8 32-510); assay: cell-based or functional assay
T1 sequence: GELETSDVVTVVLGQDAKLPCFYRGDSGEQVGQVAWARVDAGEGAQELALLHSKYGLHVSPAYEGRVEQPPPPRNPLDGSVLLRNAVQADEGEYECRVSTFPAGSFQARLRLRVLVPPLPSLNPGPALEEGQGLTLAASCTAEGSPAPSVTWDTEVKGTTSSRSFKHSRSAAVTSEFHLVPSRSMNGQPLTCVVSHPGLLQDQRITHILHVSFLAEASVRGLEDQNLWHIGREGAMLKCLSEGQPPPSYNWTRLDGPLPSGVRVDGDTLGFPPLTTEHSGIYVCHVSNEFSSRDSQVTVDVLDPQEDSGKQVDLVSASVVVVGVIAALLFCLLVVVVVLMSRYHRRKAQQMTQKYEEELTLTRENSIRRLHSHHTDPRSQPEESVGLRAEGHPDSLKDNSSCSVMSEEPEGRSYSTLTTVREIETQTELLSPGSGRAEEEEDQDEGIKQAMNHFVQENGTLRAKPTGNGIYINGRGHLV

[2] = target: T2, human Nectin-4 Mutant 7bis (human, UniProt Q96NY8 32-510); assay: binding to HEK293T cells expressing Nectin-4 mutant; '-' means association does not occur
T2 construct: Expressed on transfected HEK293T cells; also called A72P/G73N/K197T/S199A
T2 chain: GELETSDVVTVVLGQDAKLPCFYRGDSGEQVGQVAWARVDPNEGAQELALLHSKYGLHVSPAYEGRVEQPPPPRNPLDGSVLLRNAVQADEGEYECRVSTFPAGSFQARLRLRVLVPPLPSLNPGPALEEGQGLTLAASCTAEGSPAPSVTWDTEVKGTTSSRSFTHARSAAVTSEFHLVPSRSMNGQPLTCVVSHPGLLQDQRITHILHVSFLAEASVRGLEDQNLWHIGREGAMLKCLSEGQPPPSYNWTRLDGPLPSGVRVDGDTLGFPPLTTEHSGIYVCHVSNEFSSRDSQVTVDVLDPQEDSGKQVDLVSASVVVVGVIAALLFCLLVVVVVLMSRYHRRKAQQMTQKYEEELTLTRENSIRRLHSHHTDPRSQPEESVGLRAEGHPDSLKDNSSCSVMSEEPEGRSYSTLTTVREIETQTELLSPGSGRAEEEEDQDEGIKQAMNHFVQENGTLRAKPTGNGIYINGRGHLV

[3] = target: T3, mouse Nectin-4 protein expressed on CHO cells (mouse, UniProt Q8R007 32-508); assay: flow cytometry on CHO cells expressing mouse Nectin-4
T3 construct: also called Mouse Nectin-4-V5
T3 sequence: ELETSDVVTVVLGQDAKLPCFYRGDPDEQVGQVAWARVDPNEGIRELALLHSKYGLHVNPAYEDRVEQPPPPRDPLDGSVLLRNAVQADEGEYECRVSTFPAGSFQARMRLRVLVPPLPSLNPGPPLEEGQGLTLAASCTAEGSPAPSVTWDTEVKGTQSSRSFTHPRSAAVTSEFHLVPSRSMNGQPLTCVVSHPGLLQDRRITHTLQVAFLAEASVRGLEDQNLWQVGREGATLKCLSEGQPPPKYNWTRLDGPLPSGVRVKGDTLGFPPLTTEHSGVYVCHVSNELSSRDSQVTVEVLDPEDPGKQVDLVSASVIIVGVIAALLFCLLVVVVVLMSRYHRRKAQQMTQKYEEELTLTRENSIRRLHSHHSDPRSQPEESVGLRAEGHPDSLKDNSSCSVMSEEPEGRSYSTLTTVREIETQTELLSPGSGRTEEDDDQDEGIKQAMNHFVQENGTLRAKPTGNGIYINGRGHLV

[4] = system: SUM190 cells subcutaneously engrafted in CB17-SCID mice; assay: In vivo efficacy of ggfg-Dxd ADCs, Nectin-4 low/SUM190 mouse model of human breast cancer; settings: single i.v. injection 3 mg/kg, each antibody conjugated to ggfg-Dxd, DAR=8, FIG. 4
Method: SUM190 cells were subcutaneously engrafted in CB17-SCID immunodeficient mice at a dose of 0.5 million cells in 100 μl of Matrigel with growth factor diluted at ½ in PBS. When tumors reached a volume between 195 and 250 mm3, mice were randomized into groups of 9 mice for intravenous treatment with a single injection of 3 mg/kg of camptothecin ADCs. Tumor growths were followed twice a week. Kaplan Meier survival curves were established by using GraphPad Prism V7 software according to the following criteria: When the tumor volume reached 1500 mm3, mice were euthanized and considered dead on the day of sacrifice (D).

[5] = system: rat Nectin-4 protein expressed on CHO cells; assay: Species cross-reactivity by flow cytometry on CHO cell lines; type: binding; settings: FIG. 6A
Method: (§1) Anti-Nectin-4 antibodies were tested by flow cytometry for binding to different CHO cell lines made to express respectively the mouse, cynomolgus and rat Nectin-4 protein (including an N-terminal V5 tag not shown in the sequences below).
(§2) The mature amino acid sequence of the proteins expressed by the cells were as follows: […]

[6] = system: cynomolgus Nectin-4 protein expressed on CHO cells; assay: as above; type: binding; settings: FIG. 6B
Method: as §1, §2

[7] = target: T4, mouse Nectin-4 protein expressed on CHO cells (Mus musculus, UniProt Q8R007); assay: as above; type: binding
T4 construct: V5 (N); expressed in transfected cells; host or cells: CHO
T4 sequence (Q8R007 32-508): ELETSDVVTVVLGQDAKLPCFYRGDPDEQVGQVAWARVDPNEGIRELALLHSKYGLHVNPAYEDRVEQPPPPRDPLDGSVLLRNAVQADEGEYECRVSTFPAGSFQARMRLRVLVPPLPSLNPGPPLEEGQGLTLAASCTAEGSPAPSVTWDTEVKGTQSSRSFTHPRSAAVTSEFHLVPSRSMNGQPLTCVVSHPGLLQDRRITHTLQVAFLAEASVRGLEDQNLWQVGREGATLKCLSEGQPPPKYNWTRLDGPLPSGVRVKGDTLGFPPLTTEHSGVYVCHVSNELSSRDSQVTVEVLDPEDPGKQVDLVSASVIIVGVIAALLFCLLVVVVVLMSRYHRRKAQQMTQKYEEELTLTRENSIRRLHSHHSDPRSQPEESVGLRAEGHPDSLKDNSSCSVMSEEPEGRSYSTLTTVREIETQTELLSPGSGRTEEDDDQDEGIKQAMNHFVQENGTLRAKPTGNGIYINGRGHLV
Method: as §1, §2

human Nectin-4 = target: T5, human Nectin-4 (Homo sapiens, UniProt Q96NY8); assay: Binding to human Nectin-4 by SPR; settings: for ka: SPR association constant; for kd: SPR dissociation constant; for Kd: SPR, human IgG1 isotype antibodies
T5 sequence (Q96NY8 32-510): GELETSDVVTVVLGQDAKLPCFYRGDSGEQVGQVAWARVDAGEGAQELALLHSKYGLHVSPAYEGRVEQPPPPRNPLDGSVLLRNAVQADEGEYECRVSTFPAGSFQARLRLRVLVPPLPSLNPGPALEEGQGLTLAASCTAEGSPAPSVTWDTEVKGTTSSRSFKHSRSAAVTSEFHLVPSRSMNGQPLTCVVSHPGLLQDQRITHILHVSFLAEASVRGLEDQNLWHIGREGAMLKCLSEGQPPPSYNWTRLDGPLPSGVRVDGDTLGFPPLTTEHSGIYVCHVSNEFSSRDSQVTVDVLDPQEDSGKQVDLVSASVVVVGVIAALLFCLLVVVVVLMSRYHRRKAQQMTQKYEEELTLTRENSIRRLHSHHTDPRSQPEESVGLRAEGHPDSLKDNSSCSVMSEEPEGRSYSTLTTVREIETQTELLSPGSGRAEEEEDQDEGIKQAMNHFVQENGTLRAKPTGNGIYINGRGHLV
Method: (§3) The antibodies in Table 3 of Example 3 were cloned as human IgG1 isotype antibodies, produced and purified, then tested for binding to human Nectin-4. Affinity of the 16 humanized variants, as well as their association and dissociation constants were assessed by SPR analysis. Table 4 summarizes all the calculated constants (Affinity constant KD (nM), association constant ka (1/Ms) and dissociation constant kd (1/s)).
as §3, with “Table 6” for “Table 3”, “Example 5” for “Example 3”, “Table 7” for “Table 4”

rat Nectin-4 protein expressed on CHO cells, sequence (as listed by the source): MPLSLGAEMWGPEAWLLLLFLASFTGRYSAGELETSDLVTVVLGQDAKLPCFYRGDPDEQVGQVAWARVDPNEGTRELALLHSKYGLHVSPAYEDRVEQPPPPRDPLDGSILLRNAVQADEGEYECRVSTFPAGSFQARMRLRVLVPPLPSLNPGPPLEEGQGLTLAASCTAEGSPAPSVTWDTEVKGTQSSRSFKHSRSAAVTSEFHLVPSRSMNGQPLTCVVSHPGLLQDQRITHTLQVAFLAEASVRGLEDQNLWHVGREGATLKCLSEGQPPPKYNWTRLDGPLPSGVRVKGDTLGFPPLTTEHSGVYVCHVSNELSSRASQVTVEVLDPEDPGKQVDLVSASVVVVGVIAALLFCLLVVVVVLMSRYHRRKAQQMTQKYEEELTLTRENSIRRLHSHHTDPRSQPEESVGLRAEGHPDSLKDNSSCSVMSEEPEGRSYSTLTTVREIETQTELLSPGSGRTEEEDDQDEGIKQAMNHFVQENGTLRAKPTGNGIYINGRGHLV
cynomolgus Nectin-4 protein expressed on CHO cells, sequence (as listed by the source): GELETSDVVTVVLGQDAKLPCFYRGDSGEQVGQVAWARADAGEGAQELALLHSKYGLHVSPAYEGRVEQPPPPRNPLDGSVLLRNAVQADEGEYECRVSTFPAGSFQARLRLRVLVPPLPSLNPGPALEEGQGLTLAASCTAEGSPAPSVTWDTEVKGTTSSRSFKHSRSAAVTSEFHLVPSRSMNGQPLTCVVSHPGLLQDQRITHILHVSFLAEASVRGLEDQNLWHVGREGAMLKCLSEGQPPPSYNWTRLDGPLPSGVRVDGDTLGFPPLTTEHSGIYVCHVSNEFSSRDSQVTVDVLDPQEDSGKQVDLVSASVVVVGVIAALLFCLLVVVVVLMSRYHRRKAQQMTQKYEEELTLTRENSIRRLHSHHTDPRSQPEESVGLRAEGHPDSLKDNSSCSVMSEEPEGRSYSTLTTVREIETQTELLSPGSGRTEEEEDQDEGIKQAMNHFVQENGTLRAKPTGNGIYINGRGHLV

B1: chimeric parental 5E7 antibody (antibody, V domains shown)
VH: QVQLQQPGAELVKPGASVKLSCKASGYIFTSYWMHWVKQRPGQGLEWIGEIDPSDSYTNYNQKFKGKATLTLDKSSSTTYMQLSSLTSEDSAVYYCVRGYGNYGDYWGQGTTLTVSS
VL: DVVMTQAAFSNPVTLGTSASISCRSSKSLLHSNGITYLYWYLQKPGQSPQLLIYQMSNLASGVPDRFSSSGSGTDFTLRISRVEAEDVGVYYCAQNLELPWTFGGGTKLEIKR
notes: Chimeric antibody, murine variable domains with human constant regions; also called ch5E7; CHG1-M-1N4-5E7
In the case of B1, the “internalization efficiency on MDA-MB-468, normalized to chimeric parental antibody (Fab-ZAP, CTG), first column” value [1] is reported as 100 % of chimeric parental, the “internalization efficiency on MDA-MB-468, normalized to chimeric parental antibody (Fab-ZAP, CTG), second column” value [1] is reported as 100 % of chimeric parental and the binding result [2] is reported as “no binding”. B1: no binding [3].

B2: N41 (antibody, V domains shown)
VH: QVQLKQSGPGLVQPSQSLSITCTVSGFSLTNYGVHWVRQSPGKGLEWLGVIWSGGSTDYNAAFISRLSISKDTSKSQVFFKMNSLQADDTAIYYCARELIHAMDNWGQGTSVTVSS
VL: DIQMTQSPASLSVSVGETVTITCRASENIYSNLAWYQQKQGNSPQLLVFAATNLADGVPSRFSGSGSGTQYSLKINSLQSEDFGTYYCQHFWGTPTFGGGTKLEIK
B2 was tested, and the “control of tumor growth” value [4] was “no longer showed the ability to control tumor growth”.

B3: 5E7 (antibody, V domains shown)
VH: QVQLQQPGAELVKPGASVKLSCKASGYIFTSYWMHWVKQRPGQGLEWIGEIDPSDSYTNYNQKFKGKATLTLDKSSSTTYMQLSSLTSEDSAVYYCVRGYGNYGDYWGQGTTLTVSSASTKGP
VL: DVVMTQAAFSNPVTLGTSASISCRSSKSLLHSNGITYLYWYLQKPGQSPQLLIYQMSNLASGVPDRFSSSGSGTDFTLRISRVEAEDVGVYYCAQNLELPWTFGGGTKLEIKRTVAAP
With B3 the “control of tumor growth” value ([4]; 3 mg/kg) was “strong ability to prevent tumor growth; also recorded: able to effectively control tumor growth”, the “binding to rat Nectin 4 protein” value [5] was “bound” and the “binding to cynomolgus Nectin 4 protein” value [6] was “bound”. For the same molecule, the “binding to mouse Nectin 4 protein” value [7] was “lack binding”, the “ka” value (human Nectin-4; first set (Table 4)) was 480000 ± 1e-05 M⁻¹ s⁻¹ and the “ka” value (human Nectin-4; second set (Table 7)) was 480000 ± 1e-05 M⁻¹ s⁻¹. The “kd” value (human Nectin-4; first set (Table 4)) was 0.0027 ± 0.0003 s⁻¹, the “kd” value (human Nectin-4; second set (Table 7)) was 0.0027 ± 0.0003 s⁻¹ and the Kd (human Nectin-4; first set (Table 4)) was 5.9 ± 1.2 nM. It also gave a Kd (human Nectin-4; second set (Table 7)) of 5.9 nM.

Source: patent US20250297004A1, “NECTIN-4 BINDING AGENTS” (INNATE PHARMA, priority 2022, published 2025)
